Test system: C=C(OP(=O)(O)O)C(=O)O
Assay: Steady-state ATP production by pyruvate kinase monitored by Rho-MatB
Type: biochemical, rabbit
Settings: pH 7.5
[1] = other: single curve fit, Figure 6B, 250 μM ADP, 20 °C

## pyruvate kinase (Oryctolagus cuniculus)
other: n = 5, 20.0 °C
  Km: 103 µM
[1]
  Km: 75.5 ± 3.4 µM
  Vmax: 0.019 ± 0.002 μM s^–1
